Substitutions are numbered along the chain they refer to. Numbers in names are those of the source. Residues, ends and D or L forms follow the SMILES beside them.
Assays:
Kell protein [1] = molecular target: T1, Kell protein (Homo sapiens, UniProt P23276); test: Digestion of big endothelins with soluble recombinant Kell protein, HPLC analysis; assay type: biochemical; settings: for cleavage by wild-type Kell and Jsa Kell: N-terminal sequencing and mass spectrometry of cleaved products, yields endothelins; for Km: measured by HPLC, read-out: substrate affinity for cleavage by Kell protein
T1 construct: placing the cDNA that encodes the extracellular portion of Kell in a baculovirus transfer vector pAcGP67-A; made in house; host or cells: sf9 insect cells, baculovirus (pAcGP67A), protein-containing culture medium
T1 sequence (P23276 68-732 limits assumed): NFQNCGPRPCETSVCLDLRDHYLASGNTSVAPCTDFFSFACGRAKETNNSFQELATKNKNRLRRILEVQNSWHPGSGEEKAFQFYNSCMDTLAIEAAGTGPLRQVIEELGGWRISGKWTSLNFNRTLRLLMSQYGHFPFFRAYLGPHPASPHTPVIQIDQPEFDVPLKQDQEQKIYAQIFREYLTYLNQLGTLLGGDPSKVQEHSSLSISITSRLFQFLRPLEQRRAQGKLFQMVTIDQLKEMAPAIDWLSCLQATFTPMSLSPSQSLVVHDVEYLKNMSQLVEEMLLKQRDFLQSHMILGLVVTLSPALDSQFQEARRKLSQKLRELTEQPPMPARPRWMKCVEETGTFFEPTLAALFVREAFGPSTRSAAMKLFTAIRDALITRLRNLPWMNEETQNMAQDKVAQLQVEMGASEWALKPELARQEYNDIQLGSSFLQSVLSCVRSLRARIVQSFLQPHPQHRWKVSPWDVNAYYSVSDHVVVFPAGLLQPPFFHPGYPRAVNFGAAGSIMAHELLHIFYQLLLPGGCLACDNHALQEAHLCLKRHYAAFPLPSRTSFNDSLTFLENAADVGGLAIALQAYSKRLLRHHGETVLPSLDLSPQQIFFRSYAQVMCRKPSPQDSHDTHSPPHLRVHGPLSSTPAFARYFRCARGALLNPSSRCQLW
Procedure: Digestion of Big Endothelin-1,-2, and -3 (Big ET-1, -2, and -3) With Soluble Recombinant Proteins
Enzyme reaction mixture was made by mixing 8-16 μl of 1 mg/ml big ET-1 (1-38), big ET-2 (1-37 or 1-38) and big ET-3 (1-41) (American Peptide Co., Sunnyvale, Calif. and Sigma, St. Louis, Mo. and Peptide Institute, Inc., Osaka, Japan), 10 μl 1 mM ZnCl2 final concentration 86 μM and 70 μl recombinant protein containing media. The mixture was incubated at 37° C. for different time periods. Twenty to 25 aliquots of this incubation mix was assayed by reverse HPLC. The conditions of the analysis were:
Solvent A: 0.1% TFA/2,5% 1-Propanol (PrOH)/H2 O (500 μl
Trifluoroacetic acid+1 L H2 O+25 ml 1-PrOH).
Solvent B; 0.09% TFA/2.5% 1-PrOH/90% Acetonitrile/H2 O (450 μl
TFA+1 L Acetonitrile+100 ml H2 O+25 ml 1-PrOH).
Gradient condition was 1-61% A In B over 0-60 minutes at a flow rate of 0.15 ml/min. The column used was reverse phase C18 column (2×150 mm, Vydac).

Kell protein [2] = molecular target: T1, Kell protein; test: Inhibition of Kell proteolytic activity by phosphoramidon; assay type: biochemical; settings: Kell protease; read-out: Concentration which gives 50% of inhibition
Kell protein [3] = test: as above; assay type: biochemical, human
[4] = system: hematopoiesis cell culture system; test: Hematopoiesis cell culture system grown on methyl cellulose plates; assay type: cell-based; settings: preliminary studies
Source text: Meanwhile, the concentration of phosphoramidon needed to inhibit the proteolytic cleavage of big-endothelins by ECE-1 and Kell protein are different. While it is not intended to be bound by theory, it is possible that Kell participates in the proteolytic processing of growth factors or cytokines during hematopoiesis.

[5] = molecular target: Big Endothelin-1 (1-38) (Homo sapiens)
[6] = molecular target: Big Endothelin-3 (1-41) (Homo sapiens)
Kell protein [7] = molecular target: T2, Kell protein (Homo sapiens, UniProt P23276); test: Bradykinin cleavage by Kell protein; assay type: biochemical
T2 sequence (P23276 1-732): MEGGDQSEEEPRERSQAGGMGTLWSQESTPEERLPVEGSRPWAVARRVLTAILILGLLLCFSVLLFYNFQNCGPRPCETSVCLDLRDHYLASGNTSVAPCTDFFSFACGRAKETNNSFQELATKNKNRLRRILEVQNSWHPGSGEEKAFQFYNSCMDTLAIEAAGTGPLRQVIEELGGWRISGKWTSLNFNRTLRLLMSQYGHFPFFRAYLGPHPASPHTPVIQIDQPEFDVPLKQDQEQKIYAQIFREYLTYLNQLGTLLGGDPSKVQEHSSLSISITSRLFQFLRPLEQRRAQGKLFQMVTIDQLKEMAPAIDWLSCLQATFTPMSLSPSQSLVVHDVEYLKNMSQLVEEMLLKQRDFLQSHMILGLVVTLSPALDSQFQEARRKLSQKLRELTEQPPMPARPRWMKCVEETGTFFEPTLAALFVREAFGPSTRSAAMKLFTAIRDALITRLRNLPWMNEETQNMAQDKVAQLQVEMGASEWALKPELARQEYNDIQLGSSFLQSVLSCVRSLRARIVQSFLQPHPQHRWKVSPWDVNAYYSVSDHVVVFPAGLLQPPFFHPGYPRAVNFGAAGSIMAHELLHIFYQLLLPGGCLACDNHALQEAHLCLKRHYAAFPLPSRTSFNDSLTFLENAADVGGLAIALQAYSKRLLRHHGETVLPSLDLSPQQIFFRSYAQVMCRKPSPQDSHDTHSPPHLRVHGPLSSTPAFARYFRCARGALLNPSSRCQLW

[8] = system: Soluble Kell proteins (sKell); test: VIP cutting by sKell proteins; assay type: biochemical, human; settings: sf9 protein free media containing sKell
Source text: Soluble Kell proteins (sKell) proteins were used to cut vasoactive intestinal peptide (VIP).

Kell protein [9] = molecular target: T1, Kell protein; test: Digestion of big endothelins with soluble recombinant Kell protein, EIA assay; assay type: biochemical; settings: measured by EIA; 15 min; read-out: substrate affinity for cleavage by Kell protein
Procedure: Enzyme reaction mix was made by mixing various amounts of 10 μM big ET's, 20 μl of 10 Kell assay buffer (0.5 M HEPES, 0.5 mM ZnCl2 and 1.5 NaCl containing 4% (v/v) of supernatant boiled BSA) and various amounts of soluble protein containing media (ranging from 0.0313 μl to 4 μl) and H2 O to make a total volume of 200 μl. The enzyme reaction was incubated at 37° C. for 15 min. At the end of the incubation time, 100 μl of 5 mM EDTA was added to terminate the reaction. Various amounts of the sample up to 100 μl were used in Enzyme-linked Immunoassay using Endothelin-1EIA kit (Cayman Chemical).

Kell protease = molecular target: T3, Kell protease (Homo sapiens, UniProt P23276); test: pH optimum of Kell protease; assay type: biochemical
T3 sequence (P23276 1-732): T2 sequence (P23276 1-732)

## big-endothelin-2: inactive precursor of endothelin-2, substrate of Kell protein (CSCSSWLDKECVYFCHLDIIWVNTPEQTAPYGEGNPP)
Kell protein [1]
  cleavage by wild-type Kell and Jsa Kell: cleaved
  Km: ~20 µM

## big-endothelin-1: inactive 38 amino acid precursor of endothelin-1, substrate of Kell protein (CSCSSLMDKECVYFCHLDIIWVNTPEHVVPYGLGSPRS)
Kell protein [1]
  cleavage by wild-type Kell and Jsa Kell: cleaved
  Km: ~80 µM

## CC(C)C[C@H](NP(=O)(O)O[C@@H]1O[C@@H](C)[C@H](O)[C@@H](O)[C@H]1O)C(=O)N[C@@H](Cc1c[nH]c2ccccc12)C(=O)O [Phosphoramidon]
Kell protein [2]
  IC50: 50 to 100 µM
Kell protein [3]
  inhibition of Kell enzymatic activity: inhibited
[4]; higher concentration of phosphoramidon (50-100 μM)
  effect on cell growth: inhibited cell growth
[4]; low concentration of phosphoramidon (3.5-7.0 μM)
  effect on cell growth: increased cell growth

## soluble wild type Kell (secreted form of wild-type Kell protein, extracellular portion, expressed in sf9 cells) (from UniProt P23276) (enzyme)
[5]
  cleavage of big endothelin-1; substrate affinity (HPLC): 80 µM
Big Endothelin-2 (1-37)
  cleavage of big endothelin-2; substrate affinity (HPLC): 20 µM
[6]
  cleavage of big endothelin-3; substrate affinity (EIA): < 2 µM

## NC(N)=NCCC[C@H](NC(=O)[C@H](Cc1ccccc1)NC(=O)[C@@H]1CCCN1C(=O)[C@H](CO)NC(=O)[C@H](Cc1ccccc1)NC(=O)CNC(=O)[C@@H]1CCCN1C(=O)[C@@H]1CCCN1C(=O)[C@@H](N)CCCN=C(N)N)C(=O)O [bradykinin] (H-RPPGFSPFR-OH)
Kell protein [7]
  cleavage by Kell protein: does not cleave

## VIP: vasoactive intestinal peptide (1-28), a vasodilator (HSDAVFTDNYTRLRKQMAVKKYLNSILN)
[8]
  cleavage of VIP by soluble Kell: cleaves
[8]; listed as vasoactive intestinal peptide (VIP)
  cleavage of VIP by soluble Kell: cleaved

## big-endothelin-3: inactive precursor of endothelin-3, substrate of Kell protein (CTCFTYKDKECVYYCHLDIIWVNTPEQTVPYGLSNYRGSFR)
Kell protein [1]
  cleavage by wild-type Kell and Jsa Kell: cleaved
Kell protein [9]
  Km: < 2 µM

B1: Kell protease: secreted recombinant wild-type human Kell blood group protein expressed in sf9 cells (protein)
chain: T1 sequence (P23276 68-732 limits assumed)
Kell protease
  pH optimum: 6.0-6.5

B2: Jsa: secreted form of Js^a Kell phenotype (L597P) (protein)
chain: T1 sequence (P23276 68-732 limits assumed) with L530P
[8]
  cleavage of VIP by soluble Kell: cleaves more than wild type Kell

Reference: patent publication US6063592A, “Kell protein proteolytic activity” (New York Blood Center, Inc., priority 1998, dated 2000)
